Experimental data from publication doi:10.1101/2020.09.14.296129 (bioRxiv, 2020).

Target: calmodulin (calcium-loaded, holo-CaM) (UniProt P0DP23)
Assay: other fluorescence titration + ITC

Binder | fold decrease of affinity for CaM against P454 [fold] | Kd [µM]
ASAHWGQRALQGAQAVAAAQRLVSAAALMTQ [P454 H477S-I479A peptide] | ~20 | 
ASAHAGQRAAQGAQAVAAAQRLVHAIALMTQ [P454 W458A-L463A peptide] | 4 | 
ASAHWGQRALQGAQAVAAAQRAVSAAALMTQ [P454 L475A-H477S-I479A peptide] | ~20 | 
ASAHWGQEALQGAQAVAAAQELVHAIALMTQ [P454_(R12E) peptide (P454 with R461 and R474 substituted by glutamate)] |  | 22.7
